# Columns and labels:
# mSlo3 = molecular target: T1, mSlo3 (Mus musculus, UniProt O54982, V141G); experiment: mSlo3 currents expressed in Xenopus oocytes, electrophysiology; assay type: cell-based
# T1 construct: A full-length mSlo3 cDNA was cloned into pBSC-MXT; expressed in transfected cells; host or cells: Xenopus oocytes (cRNA injection)
# T1 sequence (O54982 with tags, fused parts or gaps V141G limits assumed): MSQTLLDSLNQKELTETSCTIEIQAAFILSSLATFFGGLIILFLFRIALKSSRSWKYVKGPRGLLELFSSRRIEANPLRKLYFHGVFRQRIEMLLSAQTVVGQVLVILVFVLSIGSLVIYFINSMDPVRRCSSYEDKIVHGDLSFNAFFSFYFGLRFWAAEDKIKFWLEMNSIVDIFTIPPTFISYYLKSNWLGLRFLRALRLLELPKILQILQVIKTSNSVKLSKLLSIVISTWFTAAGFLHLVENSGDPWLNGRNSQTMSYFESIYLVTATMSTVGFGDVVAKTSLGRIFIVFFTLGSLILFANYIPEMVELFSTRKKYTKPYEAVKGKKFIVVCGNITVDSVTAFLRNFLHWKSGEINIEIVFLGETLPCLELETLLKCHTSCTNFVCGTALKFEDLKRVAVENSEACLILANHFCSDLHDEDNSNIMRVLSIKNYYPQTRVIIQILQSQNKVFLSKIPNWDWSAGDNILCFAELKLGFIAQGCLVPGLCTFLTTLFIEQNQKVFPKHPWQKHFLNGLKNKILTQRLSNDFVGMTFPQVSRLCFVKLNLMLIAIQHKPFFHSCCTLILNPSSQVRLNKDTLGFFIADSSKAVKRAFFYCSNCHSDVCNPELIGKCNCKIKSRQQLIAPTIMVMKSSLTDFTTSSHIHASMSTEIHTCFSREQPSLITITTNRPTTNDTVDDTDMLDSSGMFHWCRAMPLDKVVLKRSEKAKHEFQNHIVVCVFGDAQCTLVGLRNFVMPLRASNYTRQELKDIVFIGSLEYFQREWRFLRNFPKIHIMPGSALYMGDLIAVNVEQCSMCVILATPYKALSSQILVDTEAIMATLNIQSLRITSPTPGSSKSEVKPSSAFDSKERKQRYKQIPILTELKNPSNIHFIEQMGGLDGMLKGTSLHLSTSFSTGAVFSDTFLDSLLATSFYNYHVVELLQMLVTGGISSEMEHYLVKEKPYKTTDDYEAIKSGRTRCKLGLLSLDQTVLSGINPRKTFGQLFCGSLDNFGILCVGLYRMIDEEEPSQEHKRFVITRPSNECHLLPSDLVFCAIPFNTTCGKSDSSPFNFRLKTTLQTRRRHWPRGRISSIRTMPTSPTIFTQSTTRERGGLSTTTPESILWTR
# Protocol: A full-length mSlo3 cDNA was cloned into pBSC-MXT, a Bluescript-derived plasmid (Stratagene) containing Xenopus β-globin 5′ and 3′ untranslated sequences. cDNA expression constructs were linearized at a unique Not-I site, and capped cRNA was synthesized using the mMessage mMachine (Ambion). Reactions were precipitated with LiCl to remove the DNA template and resuspended in nuclease-free water at a final concentration of approximately 1 mg/ml. Oocytes were prepared for injection as previously described (Wei et al., Science 248:599-603 (1990)), except for the use of a Drummond nanojector. Approximately 50 nl of RNA in nuclease-free water was injected into each oocyte. Oocytes were incubated in ND96 medium (Wei et al., 1994, supra) and analyzed 1-8 days after injection.
# cRNA (40 nl at approximately […]) was injected into mature Xenopus oocytes; recordings were made 1-8 days later. For whole cell-recording, medium nd96 (concentrations in mM; 96 NaCl, 2 KCl, 1.8 CaCl2, 1 MgCl2, 5 HEPES, pH 7.5) supplemented with 1 mM DIDS (to block endogenous chloride currents) employed as bath solution, or modified as noted in figure legends. Patches were perfused with either 0 Ca^2+ EGTA solutions (160 K gluconate, 34 KOH, 10 HEPES, and 10 EGTA) or Ca^2+-containing (184 K gluconate, 10 KOH, 10 HEPES, 200 mM hemicalcium gluconate) solutions. HCl was used to adjust pH. Pipet solution contained 0.5 K gluconate, 0.5 KCl, 1.1 KOH, 10 HEPES, 159 Na gluconate, and 2 hemiMg gluconate, pH 7.1. Recording. Two-electrode voltage clamp was carried out with a TEV-200 amplifier (Dagan). Patch currents were recorded on either an Axopatch 1B or 200A amplifier (Axon), and digitized at either 3.4, 5 or 10 kHz. Data acquisition and analysis programs were CCURRENT and CQUANT (Dr. Keith Baker) or pClamp6 (Axon). Recordings were made at room temperature except tail currents which were recorded at 11° C. using a Peltier device (Cambion).
# mSlo1 = mSlo1 (Mus musculus, UniProt Q08460); details: mSlo1, comparison value; read-out: EC50 (sensitivity to TEA); cited from earlier work
# Chain of mSlo1 (Q08460 whole entry): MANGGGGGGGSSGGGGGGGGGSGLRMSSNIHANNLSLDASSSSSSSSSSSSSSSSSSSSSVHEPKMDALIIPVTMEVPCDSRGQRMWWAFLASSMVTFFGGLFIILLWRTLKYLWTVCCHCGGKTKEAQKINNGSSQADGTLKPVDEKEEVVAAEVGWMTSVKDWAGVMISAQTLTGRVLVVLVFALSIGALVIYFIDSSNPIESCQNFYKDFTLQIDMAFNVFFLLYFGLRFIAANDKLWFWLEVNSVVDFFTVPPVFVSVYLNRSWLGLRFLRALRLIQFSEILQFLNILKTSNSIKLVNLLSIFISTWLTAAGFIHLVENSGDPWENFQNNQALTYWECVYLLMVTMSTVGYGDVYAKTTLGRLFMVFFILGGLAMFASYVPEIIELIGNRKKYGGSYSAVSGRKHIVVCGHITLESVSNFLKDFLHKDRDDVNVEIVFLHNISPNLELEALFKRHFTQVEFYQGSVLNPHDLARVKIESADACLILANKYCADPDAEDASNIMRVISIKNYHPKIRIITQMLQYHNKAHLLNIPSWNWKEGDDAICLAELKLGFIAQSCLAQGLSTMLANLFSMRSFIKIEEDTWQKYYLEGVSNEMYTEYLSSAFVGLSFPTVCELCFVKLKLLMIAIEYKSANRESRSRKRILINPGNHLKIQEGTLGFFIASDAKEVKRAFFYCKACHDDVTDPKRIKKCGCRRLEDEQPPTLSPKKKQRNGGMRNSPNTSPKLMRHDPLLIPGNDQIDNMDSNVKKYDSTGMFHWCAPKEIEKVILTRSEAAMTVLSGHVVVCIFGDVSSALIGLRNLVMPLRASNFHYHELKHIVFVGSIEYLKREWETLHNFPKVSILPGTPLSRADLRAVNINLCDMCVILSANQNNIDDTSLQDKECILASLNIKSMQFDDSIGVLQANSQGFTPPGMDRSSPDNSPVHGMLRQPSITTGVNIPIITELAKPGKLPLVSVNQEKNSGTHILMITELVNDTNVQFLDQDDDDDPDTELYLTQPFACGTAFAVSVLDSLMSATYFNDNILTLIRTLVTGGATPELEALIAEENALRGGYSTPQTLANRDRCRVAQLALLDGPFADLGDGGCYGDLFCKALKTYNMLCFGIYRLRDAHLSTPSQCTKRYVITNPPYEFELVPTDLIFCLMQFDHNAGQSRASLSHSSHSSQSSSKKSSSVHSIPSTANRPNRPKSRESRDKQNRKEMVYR
compound,measurement,setting,value
charybdotoxin,effect on mSlo3 currents,mSlo3; charybdotoxin 50 nM,did not affect
iberiotoxin (QFTDVDCSVSKECWSVCKDLFGVDRGKCMGKKCRCYQ),effect on mSlo3 currents,mSlo3; iberiotoxin 20 nM,did not affect
CC[N+](CC)(CC)CC [TEA],EC50,mSlo1,< 0.2 mM
same,EC50,"mSlo3; mSlo3 expressed in Xenopus oocytes, read-out: EC50 (sensitivity to TEA)",~100 mM
